Source: article PMC2063867

Target: FAK
Assay: anti-GFP co-IP, anti-myc blot
Settings: reference: WT-paxillin-GFP; sites S273

Sequence of paxillin (P49024 whole entry, looked up, stated change not applied): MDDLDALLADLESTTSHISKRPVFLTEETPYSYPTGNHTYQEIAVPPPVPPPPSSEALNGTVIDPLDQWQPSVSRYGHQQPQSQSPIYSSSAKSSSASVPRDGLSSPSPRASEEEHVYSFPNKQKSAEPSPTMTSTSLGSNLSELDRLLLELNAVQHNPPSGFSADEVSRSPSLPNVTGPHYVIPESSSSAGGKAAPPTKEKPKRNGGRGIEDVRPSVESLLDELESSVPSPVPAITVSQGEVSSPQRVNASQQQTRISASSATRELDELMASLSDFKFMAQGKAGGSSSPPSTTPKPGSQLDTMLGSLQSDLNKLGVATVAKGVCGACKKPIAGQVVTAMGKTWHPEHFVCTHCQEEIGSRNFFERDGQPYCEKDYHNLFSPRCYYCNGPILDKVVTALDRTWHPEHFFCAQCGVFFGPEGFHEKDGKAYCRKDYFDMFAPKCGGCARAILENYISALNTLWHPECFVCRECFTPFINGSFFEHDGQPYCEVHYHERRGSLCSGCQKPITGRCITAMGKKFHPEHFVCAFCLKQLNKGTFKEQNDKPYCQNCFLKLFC

other: percent increase over reference: 25%
Substance: paxillin (from UniProt P49024) S273A-paxillin-GFP
